Test results published in patent US20230406950A1 (LYVGEN BIOPHARMA, published 2023).
Read-outs that look alike come from different tables or passages of the source.

Assays:
[1] = target: T1, human OX40 expressed on CHO cells (human, UniProt P43489 29-277); assay: FACS on CHO cells expressing human OX40 (MFI)
T1 construct: whole, on cells
T1 sequence (looked up): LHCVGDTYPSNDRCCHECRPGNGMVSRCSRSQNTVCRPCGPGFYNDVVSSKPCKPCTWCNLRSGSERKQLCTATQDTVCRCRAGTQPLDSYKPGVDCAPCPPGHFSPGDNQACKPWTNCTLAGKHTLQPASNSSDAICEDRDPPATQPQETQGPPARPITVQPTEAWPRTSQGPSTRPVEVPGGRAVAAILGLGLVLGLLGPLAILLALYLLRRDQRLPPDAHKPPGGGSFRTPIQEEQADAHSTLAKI
Description: (§1) Anti-OX40/CD137 bi-specific antibodies were analyzed by FACS for their binding properties to human OX40 and/or human CD137 expressed on CHO cells. Briefly, cultured cells were harvested, counted and cell viability was evaluated using the Trypan Blue exclusion method. Viable cells were then adjusted to 2×10⁶ cells per mL in PBS containing 2% BSA. 100 μL of this cell suspension were further aliquoted per well into a V-bottom 96-well plate. […] After incubation for 2 hours at 4° C., cells were centrifuged (3 min, 1000×g), washed with 250 μL/well BSA-containing FACS Stain Buffer, resuspended and incubated for an additional 1 hour at 4° C. with 100 μL/well fluorochrome-conjugated anti-IgG antibody for detection of the bisepecific antibody. Cells were then washed with 250 μL/well BSA-containing FACS Stain Buffer, resuspended in 100 μL/well FACS Stain Buffer, acquired and analyzed using a FACS machine. Binding of the bispecific antibodies to human OX40 or human CD137 expressing CHO cells were evaluated and the mean fluorescence intensity is plotted in histograms or dot plots.

[2] = target: T2, human CD137 expressed on cells (human, UniProt Q07011 24-255); assay: FACS on CHO cells expressing human CD137 (MFI)
T2 construct: whole, on cells; also called 4-1BB; TNFRSF9
Description: as §1

[3] = target: T2, human CD137 expressed on cells; assay: FACS on CHO cells expressing human CD137 (MFI); remark: listed apart in the source
Description: as §1, with “Anti-GITR/CD137” for “Anti-OX40/CD137”, “GITR” for “OX40”, “1000× g),” for “1000×g),”

[4] = target: T2, human CD137 expressed on cells; assay: FACS on CHO cells expressing human CD137 (MFI); remark: listed apart in the source
Description: as §1

T2 sequence (Q07011 24-255): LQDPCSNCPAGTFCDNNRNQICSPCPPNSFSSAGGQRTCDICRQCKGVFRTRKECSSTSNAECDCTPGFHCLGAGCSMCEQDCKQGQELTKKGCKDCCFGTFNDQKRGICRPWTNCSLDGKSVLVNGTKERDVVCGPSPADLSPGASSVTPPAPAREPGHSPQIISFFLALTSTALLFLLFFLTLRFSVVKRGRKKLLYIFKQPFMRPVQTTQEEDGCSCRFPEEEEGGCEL

Binder | EC50 (read off the curve) [1] [µg/mL] | EC50 (read off the curve) [2] [µg/mL] | EC50 (read off the curve) [3] [µg/mL] | EC50 (read off the curve) [4] [µg/mL] | binding result [1]
Ly766 (bispecific antibody, human IgG1, kappa, Anti-OX40/CD137: Ly598-derived heavy chain fused to Ly1630 scFv (VL-VH); Ly598 light chain) heavy: EVQLVQSGAEVKKPGASVKVSCKASGYTFTDSYMSWVRQAPGQGLEWIGDMYPDNGDSSYNQKFRERVTITRDTSTSTAYLELSSLRSEDTAVYYCVLAPRWYFSVWGQGTLVTVSSASTKGPSVFPLAPSSKSTSGGTAALGCLVKDYFPEPVTVSWNSGALTSGVHTFPAVLQSSGLYSLSSVVTVPSSSLGTQTYICNVNHKPSNTKVDKKVEPKSCDKTHTCPPCPAPELLGPSVFLFPPKPKDTLMISRTPEVTCVVVDVSHEDPEVKFNWYVDGVEVHNAKTKPREEQYNSTYRVVSVLTVLHQDWLNGKEYKCKVSNKALPAPIEKTISKAKGQPREPQVYTLPPSREEMTKNQVSLTCLVKGFYPSDIAVEWESNGQPENNYKTTPPVLDSDGSFFLYSKLTVDKSRWQQGNVFSCSVMHEALHNHYTQKSLSLSPGGGGGSGGGGSGGGGSGGGGSDIQMTQSPSSLSASVGDRVTITCRASQDIRSNLNWYQQKPGGAVKLLIYYTSRLHSGVPSRFSGSGSGTDYTLTISSLQPEDFATYFCQQSEKLPRTFGGGTKVEIRGGGGSGGGGSGGGGSGGGGSQVQLVQSGAEVKKPGASVKVSCKASGYTFAGFEMHWVRQAPGQGLEWMGAIDPKTGGTDYNQKFKDRVTMTRDTSISTAYMELSRLRSDDTAVYYCARDLGYFDVWGQGTLVTVSS light: not shown | ~0.4 | ~0.2 | – | – | –
Ly756 (bispecific antibody, human IgG1, kappa, Anti-GITR/CD137: Ly1630 heavy chain; Ly1630 light chain fused to TM685 scFv (VL-VH)) heavy: QVQLVQSGAEVKKPGASVKVSCKASGYTFAGFEMHWVRQAPGQGLEWMGAIDPKTGGTDYNQKFKDRVTMTRDTSISTAYMELSRLRSDDTAVYYCARDLGYFDVWGQGTLVTVSSASTKGPSVFPLAPSSKSTSGGTAALGCLVKDYFPEPVTVSWNSGALTSGVHTFPAVLQSSGLYSLSSVVTVPSSSLGTQTYICNVNHKPSNTKVDKKVEPKSCDKTHTCPPCPAPELLGPSVFLFPPKPKDTLMISRTPEVTCVVVDVSHEDPEVKFNWYVDGVEVHNAKTKPREEQYNSTYRVVSVLTVLHQDWLNGKEYKCKVSNKALPAPIEKTISKAKGQPREPQVYTLPPSREEMTKNQVSLTCLVKGFYPSDIAVEWESNGQPENNYKTTPPVLDSDGSFFLYSKLTVDKSRWQQGNVFSCSVMHEALHNHYTQKSLSLSPGK light: DIQMTQSPSSLSASVGDRVTITCRASQDIRSNLNWYQQKPGGAVKLLIYYTSRLHSGVPSRFSGSGSGTDYTLTISSLQPEDFATYFCQQSEKLPRTFGGGTKVEIRRTVAAPSVFIFPPSDEQLKSGTASVVCLLNNFYPREAKVQWKVDNALQSGNSQESVTEQDSKDSTYSLSSTLTLSKADYEKHKVYACEVTHQGLSSPVTKSFNRGECGGGGSGGGGSGGGGSGGGGSEIVLTQSPATLSLSPGERATLSCRASKSVRTGMHWYQQKPGQAPRLLIYGASNLESGIPARFSGSGSGTDFTLTISSLEPEDFAVYYCQQSWNHFTFGQGTKLEIKGGGGSGGGGSGGGGSGGGGSQVQLQESGPGLVKPSETLSLTCTVSGFSLTSYNVHWIRQPPGKGLEWIGVIWSGVRTDYNSVLKPRVTISVDTSKNQFSLKLSSVTAADTAVYYCARGTYDDNYHDVMDAWGQGTLVTVSS | – | – | ~0.1 | – | –
Ly765 (bispecific antibody, human IgG1, kappa, Anti-OX40/CD137: Ly1630 heavy chain) heavy: QVQLVQSGAEVKKPGASVKVSCKASGYTFAGFEMHWVRQAPGQGLEWMGAIDPKTGGTDYNQKFKDRVTMTRDTSISTAYMELSRLRSDDTAVYYCARDLGYFDVWGQGTLVTVSSASTKGPSVFPLAPSSKSTSGGTAALGCLVKDYFPEPVTVSWNSGALTSGVHTFPAVLQSSGLYSLSSVVTVPSSSLGTQTYICNVNHKPSNTKVDKKVEPKSCDKTHTCPPCPAPELLGPSVFLFPPKPKDTLMISRTPEVTCVVVDVSHEDPEVKFNWYVDGVEVHNAKTKPREEQYNSTYRVVSVLTVLHQDWLNGKEYKCKVSNKALPAPIEKTISKAKGQPREPQVYTLPPSREEMTKNQVSLTCLVKGFYPSDIAVEWESNGQPENNYKTTPPVLDSDGSFFLYSKLTVDKSRWQQGNVFSCSVMHEALHNHYTQKSLSLSPGK light: DIQMTQSPSSLSASVGDRVTITCRASQDIRSNLNWYQQKPGGAVKLLIYYTSRLHSGVPSRFSGSGSGTDYTLTISSLQPEDFATYFCQQSEKLPRTFGGGTKVEIRRTVAAPSVFIFPPSDEQLKSGTASVVCLLNNFYPREAKVQWKVDNALQSGNSQESVTEQDSKDSTYSLSSTLTLSKADYEKHKVYACEVTHQGLSSPVTKSFNRGECGGGGSGGGGSGGGGSGGGGSEVQLVQSGAEVKKPGASVKVSCKASGYTFTDSYMSWVRQAPGQGLEWIGDMYPDNGDSSYNQKFRERVTITRDTSTSTAYLELSSLRSEDTAVYYCVLAPRWYFSVWGQGTLVTVSSGGGGSGGGGSGGGGSGGGGSDIQMTQSPSSLSASVGDRVTITCRASQDISNYLNWYQQKPGKAPKLLIYYTSRLRSGVPSRFSGSGSGTDFTLTISSLQPEDFATYYCQQGHTLPPTFGQGTKVEIK | – | – | – | ~0.2 | binds
Ly767 (bispecific antibody, human IgG1, kappa, Anti-OX40/CD137: Ly598-derived heavy chain fused to Ly1630 scFv (VH-VL); Ly598 light chain) heavy: EVQLVQSGAEVKKPGASVKVSCKASGYTFTDSYMSWVRQAPGQGLEWIGDMYPDNGDSSYNQKFRERVTITRDTSTSTAYLELSSLRSEDTAVYYCVLAPRWYFSVWGQGTLVTVSSASTKGPSVFPLAPSSKSTSGGTAALGCLVKDYFPEPVTVSWNSGALTSGVHTFPAVLQSSGLYSLSSVVTVPSSSLGTQTYICNVNHKPSNTKVDKKVEPKSCDKTHTCPPCPAPELLGPSVFLFPPKPKDTLMISRTPEVTCVVVDVSHEDPEVKFNWYVDGVEVHNAKTKPREEQYNSTYRVVSVLTVLHQDWLNGKEYKCKVSNKALPAPIEKTISKAKGQPREPQVYTLPPSREEMTKNQVSLTCLVKGFYPSDIAVEWESNGQPENNYKTTPPVLDSDGSFFLYSKLTVDKSRWQQGNVFSCSVMHEALHNHYTQKSLSLSPGGGGGSGGGGSGGGGSGGGGSQVQLVQSGAEVKKPGASVKVSCKASGYTFAGFEMHWVRQAPGQGLEWMGAIDPKTGGTDYNQKFKDRVTMTRDTSISTAYMELSRLRSDDTAVYYCARDLGYFDVWGQGTLVTVSSGGGGSGGGGSGGGGSGGGGSDIQMTQSPSSLSASVGDRVTITCRASQDIRSNLNWYQQKPGGAVKLLIYYTSRLHSGVPSRFSGSGSGTDYTLTISSLQPEDFATYFCQQSEKLPRTFGGGTKVEIR light: not shown | ~0.4 | ~0.3 | – | – | –
Ly768 (bispecific antibody, human IgG1, kappa, Anti-OX40/CD137: Ly598-derived heavy chain) heavy: EVQLVQSGAEVKKPGASVKVSCKASGYTFTDSYMSWVRQAPGQGLEWIGDMYPDNGDSSYNQKFRERVTITRDTSTSTAYLELSSLRSEDTAVYYCVLAPRWYFSVWGQGTLVTVSSASTKGPSVFPLAPSSKSTSGGTAALGCLVKDYFPEPVTVSWNSGALTSGVHTFPAVLQSSGLYSLSSVVTVPSSSLGTQTYICNVNHKPSNTKVDKKVEPKSCDKTHTCPPCPAPELLGPSVFLFPPKPKDTLMISRTPEVTCVVVDVSHEDPEVKFNWYVDGVEVHNAKTKPREEQYNSTYRVVSVLTVLHQDWLNGKEYKCKVSNKALPAPIEKTISKAKGQPREPQVYTLPPSREEMTKNQVSLTCLVKGFYPSDIAVEWESNGQPENNYKTTPPVLDSDGSFFLYSKLTVDKSRWQQGNVFSCSVMHEALHNHYTQKSLSLSPGK light: not shown | – | ~0.3 | – | – | binds
Ly769 (bispecific antibody, human IgG1, kappa, Anti-OX40/CD137: Ly598-derived heavy chain) heavy: EVQLVQSGAEVKKPGASVKVSCKASGYTFTDSYMSWVRQAPGQGLEWIGDMYPDNGDSSYNQKFRERVTITRDTSTSTAYLELSSLRSEDTAVYYCVLAPRWYFSVWGQGTLVTVSSASTKGPSVFPLAPSSKSTSGGTAALGCLVKDYFPEPVTVSWNSGALTSGVHTFPAVLQSSGLYSLSSVVTVPSSSLGTQTYICNVNHKPSNTKVDKKVEPKSCDKTHTCPPCPAPELLGPSVFLFPPKPKDTLMISRTPEVTCVVVDVSHEDPEVKFNWYVDGVEVHNAKTKPREEQYNSTYRVVSVLTVLHQDWLNGKEYKCKVSNKALPAPIEKTISKAKGQPREPQVYTLPPSREEMTKNQVSLTCLVKGFYPSDIAVEWESNGQPENNYKTTPPVLDSDGSFFLYSKLTVDKSRWQQGNVFSCSVMHEALHNHYTQKSLSLSPGK light: not shown | – | ~0.6 | – | – | binds
